The values that follow come from publication PMC4227968.

The target of the series is T1, CzrA (Bacillus subtilis, UniProt O31844 1-107).
T1 sequence: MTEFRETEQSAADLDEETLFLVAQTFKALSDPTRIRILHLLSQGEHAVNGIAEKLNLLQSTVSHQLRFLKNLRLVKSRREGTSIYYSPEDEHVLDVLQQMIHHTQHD
Nature of the series: fluorescence anisotropy. On the technique in general: Polarisation of emitted light reports the rotation of a fluorescent probe.

B1: cadA promoter operator 28 bp (dsDNA)
DNA 1: TTATATATGAGTATATGCTCATATATAT
DNA 2: ATATATATGAGCATATACTCATATATAA
As to B1, the binding result is on record as “binds”.
